Data as given in US8974774.

Biological target: carcinoembryonic antigen (human) (UniProt P06731)
Sequence of UniProt P06731 (P06731 35-702): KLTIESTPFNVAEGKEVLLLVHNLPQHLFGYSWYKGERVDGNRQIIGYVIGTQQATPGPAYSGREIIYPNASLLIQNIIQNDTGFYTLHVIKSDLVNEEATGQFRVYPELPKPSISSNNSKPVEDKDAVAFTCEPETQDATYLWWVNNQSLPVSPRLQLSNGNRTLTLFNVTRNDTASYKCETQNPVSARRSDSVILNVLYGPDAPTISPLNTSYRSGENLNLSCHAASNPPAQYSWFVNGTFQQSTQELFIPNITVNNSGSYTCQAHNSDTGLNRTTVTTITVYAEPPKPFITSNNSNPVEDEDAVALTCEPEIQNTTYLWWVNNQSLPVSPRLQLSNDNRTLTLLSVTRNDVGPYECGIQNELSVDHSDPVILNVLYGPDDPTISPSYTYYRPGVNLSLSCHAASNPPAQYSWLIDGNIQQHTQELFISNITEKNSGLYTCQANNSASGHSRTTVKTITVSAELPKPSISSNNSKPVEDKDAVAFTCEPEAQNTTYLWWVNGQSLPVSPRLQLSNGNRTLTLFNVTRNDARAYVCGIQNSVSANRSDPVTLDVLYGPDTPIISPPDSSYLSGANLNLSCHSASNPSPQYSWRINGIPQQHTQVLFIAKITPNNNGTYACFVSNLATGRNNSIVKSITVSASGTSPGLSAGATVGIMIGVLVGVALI

Monoclonal antibody to carcinoembryonic antigen (CEA; clone CD66e, US Biological) covalently conjugated to anionic polyaspartate (3K MW)
percent of colon carcinoma cells positive for fluorescein signal: 87.6%
